From the Human Domainome abundance scans (Beltran et al. 2025)

B1: Gamma-crystallin D, residues 90 to 170; numbered along this chain, P07320 (parent)
chain: IRLYEREDYRGQMIEFTEDCSCLQDRFRFNEIHSLNVLEGSWVLYELSNYRGRQYLLMPGDYRRYQDWGATNARVGSLRRV

Variants of: B1
Test: abundance fitness (aPCA) (normalised: wild type 0, dead -1); higher = more abundant; growth selection in yeast, the domain comes from the species named
Conditions: Homo sapiens

Abundance fitness of substitutions, site by site:
L47: K -0.221 | I -0.16 | G -0.027 | E -0.12 | H -0.072 | A -0.037 | F 0.008 | D 0.147
F27: N -0.086 | T -0.09 | E 0.065 | P 0.103 | D 0.012 | L -0.105 | M -0.129 | H -0.343 | Y -0.048 | R -0.126 | I -0.035 | W -0.103 | S 0.011 | K -0.009 | G -0.106 | V -0.092
H33: M 0.05 | V 0.04 | K -0.057 | R -0.005 | T -0.065 | Q 0.04 | A 0.039 | C -0.01 | P 0.062 | N -0.082 | G 0.079 | W 0.02 | L -0.024 | D 0.011 | E 0.078 | I 0.07 | F -0.023 | S 0.118
S34: G -0.099 | Y -0.893 | W -0.828 | H -0.771 | T -0.924 | V -1.08 | C -0.014 | P -1.03 | R -0.766 | E -0.853 | D -0.936 | M -0.689 | I -0.84 | A 0.112
R28: M 0.065 | I 0.029 | Q 0.1 | H -0.32 | C -0.047 | P -0.023 | T -0.002 | G -0.031 | E -0.177 | D 0.128 | L -0.043 | F -0.203 | A -0.005 | K 0.139 | S 0.024 | Y -0.004
N36: S 0.135 | A 0.045 | M -0.112 | R 0.006 | E 0.023 | W 0.076 | T -0.153 | C -0.054 | K -0.023 | F 0.114 | Q 0.051 | P -1.23 | I -0.05 | H -0.058 | G -0.087 | V -0.098 | Y -0.086 | D -0.051
I32: P -0.003 | R -0.062 | L 0.119 | Y 0.325 | V 0.127 | Q -0.251 | K -0.235 | C 0.032 | F -0.001 | W 0.067 | A -0.11 | E -0.201 | G 0.063 | S -0.007 | N -0.101 | M 0.02 | D -0.346 | T -0.037
F29: W 0.031 | H -0.066 | A 0.008 | E 0.05 | S 0.093 | I -0.112 | N -0.064 | L -0.012 | C 0.036 | Q 0.041 | P 0.069 | D 0.008 | V -0.072 | T -0.135 | Y 0.161 | G -0.007 | R 0.117
E31: P 0.152 | K -0.004 | T 0.048 | C -0.192 | F -0.109 | H 0.059 | N 0.005 | M 0.03 | G 0.035 | I 0.139 | Q 0.116 | S -0.123 | R 0.004 | L 0.054 | D -0.096 | W 0.078 | V -0.105
W42: I -0.029 | Y 0.166 | A -0.554 | F -0.105 | T -0.492 | L -0.201 | C -0.272 | P -0.923 | H -0.38 | V 0.114 | S -0.865 | E -1.07 | M -0.388 | R -0.994 | D -1 | N -0.774 | Q -0.969 | G -1.1
E46: R -0.273 | C -0.201 | N -0.343 | P -0.199 | T -0.047 | H -0.161 | V -0.325 | G -0.263 | Y -0.626 | A -0.083 | F -0.197 | Q -0.012 | W -0.783 | M -0.095 | S -0.113
V43: S -0.029 | K -0.148 | Y -0.229 | H -0.129 | D -0.017 | L -0.1 | M 0.079 | A -0.059 | F -0.125 | R 0.006 | T -0.113 | E 0.204 | W -0.028 | P -0.844 | G -0.026 | N -0.157
L44: P -1.04 | Q -0.563 | A 0.006 | V 0.035 | R -1.17 | Y -0.073 | D -0.93 | C -0.093 | H -0.721 | N -0.938 | G -0.024 | W -0.414 | T -0.03 | I 0.048 | F -0.021
L38: W 0.153 | R 0.029 | H 0.024 | Q -0.007 | K -0.141 | A -0.066 | V -0.045 | I 0.007 | G 0.016 | D 0.064 | S -0.065 | C -0.102 | P 0.012 | M -0.035 | T -0.055
V37: P 0.153 | Q -0.306 | W -0.895 | I 0.091 | H -0.086 | L 0.096 | A 0.01 | F 0.159 | S 0.137 | T 0.091 | D 0.165 | C -0.126 | M -0.338 | E -1.11 | G -0.218 | K -0.7
G40: R -0.142 | M -0.13 | I -0.113 | P -0.077 | F -0.031 | S -0.021 | C -0.039 | K -0.187 | L -0.143 | N -0.228 | E 0.076 | D 0.011 | H 0.132 | Q -0.053 | A -0.014 | V 0.025 | T -0.041 | Y -0.104
L35: P -1 | N -0.156 | V 0.048 | H -0.535 | W -0.552 | G 0.035 | Y -0.249 | F 0.148 | R -0.863 | T -0.034 | I 0.231 | E -1.08 | Q -0.01 | S -0.035 | A 0.024 | M -0.036
E39: C -0.156 | T 0.059 | D -0.039 | R 0.016 | W -0.176 | S -0.024 | F -0.262 | M -0.054 | K -0.065 | P -0.78 | Q -0.084 | I -0.03 | H 0.165 | L -0.061 | G 0.084 | A 0.074
N30: A 0.028 | L -0.122 | H -0.081 | I 0.187 | W -0.036 | D 0.018 | T 0.038 | M -0.051 | E 0.092 | V 0.143 | R 0.024 | Y -0.1 | G 0.054 | K 0.107
S41: W -0.207 | D -0.007 | M -0.285 | R 0.021 | P -0.171 | I -0.161 | F -0.384 | Y -0.078 | A -0.222 | H -0.006 | Q 0.022 | K 0.045 | N -0.175 | T -0.09 | V -0.138 | L -0.363 | E 0.076 | G 0.064
Y45: Q -0.395 | H -0.151 | S -0.157 | L -0.708 | T -0.07 | E -1.04 | G -0.441 | M -0.401 | P -0.553 | R -0.439 | V -0.88 | C -0.273 | D -1.01 | A -0.347 | N -0.507
